Experimental data taken from the supplement of paper PMC10567573.

B1: KLHL12 (parent)
chain: LDYTADEDGVWYSVAPMNVRRGLA
B2: KLHL13 (parent)
chain: GVSKVGLRKIIDFIYTAKLSLNMD

Variants of: B1
Assay: protein stability index of a GFP-peptide fusion (GPS, HEK-293T) (PSI 1-6); higher = more stable
Conditions: c terminus: a fixed tail appended
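Further: lentivirally expressed fusions sorted by FACS into six bins by GFP to DsRed ratio, PSI derived from sequencing read proportions per bin multiplied by bin number.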

Protein stability index: each site, then its substitutions
D2: H 1.67 | A 2.3 | E 1.76 | L 1.55 | Q 1.47 | C 2.46 | P 2.48 | M 2.4 | N 1.74 | W 2.19 | K 1.68 | R 1.93 | I 1.37 | F 1.98 | T 1.49 | G 2.96 | S 1.84
L1: G 3.19 | I 1.89 | V 2.25 | S 3.24 | K 2.75 | F 2.16 | W 2.53 | P 3.41 | C 2.75 | D 3.47 | R 2.99 | N 3.92 | H 2.67 | M 2.2 | E 3.53 | T 3.18 | A 3.26 | Q 4 | Y 2.32

Variants of: B2
Assay: as above
Conditions: c terminus: a fixed tail appended

Protein stability index of substitutions, site by site:
V5: S 3.47 | G 3.21 | Q 3.5 | F 4.57 | R 3.04 | L 2.12 | A 2.64 | N 3.8 | C 2.67 | P 2.58 | I 1.5 | Y 2.06 | W 3.14 | E 1.83 | M 2.27 | T 4.05
R8: K 4.72 | A 5.37 | I 2.55 | H 2.07 | P 1.92 | G 2.07 | C 2.46 | W 3.31 | M 1.69 | L 4.65 | E 1.49 | D 3.02
T16: P 2.57 | W 1.79 | H 1.63 | V 1.81 | M 1.95 | G 2.86 | Y 2.74 | E 1.95 | I 2.72 | R 2.69
G6: S 2.08 | L 4.85 | R 2.15 | P 2.12 | W 2.32 | E 1.47 | H 3.04 | N 2.05 | Q 2.4 | K 2.84 | C 1.49 | V 3.71 | Y 3.06
L19: H 1.87 | V 3.11 | S 1.63 | Q 2.21 | D 1.36 | C 2.34 | N 3.62 | W 2.93 | T 2.95
Y15: D 1.8 | G 2.51 | F 3.84 | Q 1.36 | T 2.52 | R 4.12 | P 1.84 | A 3.72 | N 4.89 | M 2.48 | L 2.07
K18: H 2.72 | N 2.17 | L 1.76 | Q 3.22 | S 3.44 | G 2.55 | M 2.52 | R 2.63 | T 2.15 | W 2.7 | Y 2.88 | C 2.46 | P 2.89
I11: N 2.24 | E 2.1 | H 4.7 | D 2.14 | S 1.89 | P 1.97 | Q 1.61 | K 4.1 | A 1.87 | Y 4.12 | M 3.33 | G 2.63 | L 3.57
S3: V 4.55 | W 2.47 | G 1.62 | D 2.68 | Q 2.92 | K 2.31 | H 3.22 | Y 3.66 | T 2.37 | M 2.17 | R 2.45
D24: T 3.01 | Q 2.15 | H 3.01 | F 2.82 | M 2.28 | Y 2.2 | P 2.88 | R 3.43 | G 3.65 | V 2.49 | A 3.2 | N 2.74 | L 2.01 | K 1.71
I14: G 3.7 | L 2.9 | V 2.43 | P 2.12 | Q 2.24 | D 1.86 | N 2.15 | H 1.34 | E 2.31 | C 2.44 | A 2.38 | K 1.94 | S 2.02 | M 3.04 | Y 2.27 | W 3.72
M23: D 2.09 | R 3.14 | S 1.79 | H 3.04 | N 1.53 | Q 1.55 | Y 3.73 | C 2.45 | G 3.36 | T 2.19 | K 1 | A 2.48
S20: W 1.85 | H 2.7 | V 1.96 | Q 1.68 | E 4.11 | I 2.04 | A 3.46 | N 3.26 | L 2.67 | R 2.11 | P 2.25 | K 3.46
G1: K 2.08 | S 3.05 | N 2.53 | L 2.96 | Q 2.05 | H 2.49 | P 1.75 | T 3.89 | W 3.32 | A 3.93
L7: F 2.93 | S 2.94 | Q 2.97 | C 3.38 | H 3.17 | W 2.05 | I 3.25 | K 1.86 | R 2.5 | G 3.85 | T 2.6 | A 2.27
I10: C 1.53 | N 1.63 | W 4.2 | S 4.37 | Y 3.8 | G 2.31 | R 2.74 | A 2.04 | T 2.02 | E 1.48 | D 1.55 | P 1.81 | K 2.98 | Q 2.35 | H 1.14
V2: H 1.7 | N 2.03 | G 3.41 | T 4.01 | C 1.52 | P 1.83 | D 3.51 | S 1.79 | K 2.38 | F 1.65 | Y 2.11
K4: Y 1.85 | A 3.12 | N 2.24 | W 2.34 | M 2.42 | L 1.93 | E 2.77 | H 2.18 | T 4.12 | I 1.94 | S 2.88 | F 3.29 | R 2.95 | C 2.64 | D 4.34
F13: N 1.48 | R 1.54 | H 2.62 | C 2.83 | Q 1.04 | K 1.66 | P 2.22 | D 1.7 | G 2.41 | M 2.74 | T 1.93 | V 3.34 | S 1.44 | E 1.43
A17: W 3.08 | G 3.4 | S 1.75 | Y 3.45 | R 2.95 | P 2.39 | E 1.81 | V 1.56 | K 2.73
K9: Q 2.03 | M 2.42 | D 3.8 | L 2.37 | E 1.78 | N 3.3 | C 3.38 | A 4.24 | H 2.64 | S 2.4 | Y 2.81 | G 1.91 | I 3.12 | V 4.21
L21: W 1.96 | E 1.53 | S 2.72 | Q 3.01 | P 1.86 | A 1.94 | N 1.83 | D 1.8 | F 2.21 | C 2.69
N22: F 3.75 | P 4.34 | R 2.09 | W 1.31 | A 3.65 | M 2.26 | L 2.11 | D 2.3 | I 2.68 | E 2.73 | V 1.32 | H 2.41 | Y 1.99 | S 2.36 | Q 1.9
D12: E 2.27 | Q 2.36 | V 1.94 | H 1.92 | L 2.27 | G 3.19 | I 2.57 | T 2.9 | M 1.62 | S 3.08 | N 1.55
